The source of these data is patent publication US12269880B2, “LAG3 binding peptides” (Leidos, Inc., priority 2019, dated 2025).

Several values for one entry are separate records, joined by “and”; a condition that tells them apart may be missing. Equal entries are not always repeated.

Assay [1] deals with interaction with LAG3 and its ligand MHC-II. The assay can be described thus: Cell-based NFAT-luc2P luciferase reporter assay, LAG3 Jurkat / MHC-II Raji co-culture. Also noted: species or system human. Conditions: RLUs at 100 µM compared to RLUs at 0.64 µM. From the text: A cell-based reporter assay was used to assess whether binding of the seven peptides identified above was sufficient to block the interaction with LAG3 and its ligand MHC-II. The components of the assay include (1) a Jurkat T cell line that stably expresses human LAG3 and a stable NFAT-luc2P luciferase reporter, (2) a Raji cell line that expresses human MHC-II, and (3) a positive control anti-LAG3 antibody that blocks the interaction of LAG3 and MHC-II. In brief, Jurkat cells expressing LAG3 are stimulated with a T cell receptor (TCR) activator molecule, resulting in expression of luciferase. When the Jurkat cells are co-cultured with an a Raji cell line expressing the MHC-II molecule, the interaction of LAG3 on the surface of a Jurkat cell with MHC-II on the surface of a Raji cell inhibits T cell activation, leading to a reduction in luciferase expression. The addition of a neutralizing antibody against LAG3 blocks the inhibition signal and allows luciferase expression to proceed. BIO-GLO™ (Promega) was used to measure luciferase expression. The seven LAG3 peptides were tested at concentrations of 0, 0.64, 1.6, 4, 10, 25, & 100 µM.
Results of the assay testing the seven LAG3 peptides identified above and a negative control peptide ([…]; SEQ ID NO:9) are shown in FIG. 1B.
(Reporter assays use an easily measured gene product as a stand-in for the process of interest.)

The target in assay [2] is T1, LAG3/MHC-II interaction (Homo sapiens, UniProt P18627).
T1 construct: purchased Cisbio US Inc
T1 sequence (P18627 23-450 limits assumed): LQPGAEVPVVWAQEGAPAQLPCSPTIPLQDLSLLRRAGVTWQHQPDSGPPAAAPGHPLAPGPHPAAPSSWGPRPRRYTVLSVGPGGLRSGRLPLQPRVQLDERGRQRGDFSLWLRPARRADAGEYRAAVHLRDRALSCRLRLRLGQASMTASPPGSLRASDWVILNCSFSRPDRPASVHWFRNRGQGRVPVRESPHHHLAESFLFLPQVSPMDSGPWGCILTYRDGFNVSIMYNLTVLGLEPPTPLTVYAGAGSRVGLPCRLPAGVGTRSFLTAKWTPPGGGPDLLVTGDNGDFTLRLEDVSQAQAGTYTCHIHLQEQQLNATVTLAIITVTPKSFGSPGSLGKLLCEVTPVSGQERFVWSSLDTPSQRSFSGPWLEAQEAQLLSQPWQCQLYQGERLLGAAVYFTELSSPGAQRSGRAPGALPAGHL
The assay can be described thus: HTRF LAG3/MHC-II binding assay (Cisbio). The source says:
FIG. 2 is a graph showing the results of a homogeneous time-resolved fluorescence (HTRF) assay for peptide LAG3-11. Reference Ab-LAG3 is an anti-LAG3 antibody. OVA, the ovalbumin (OVA) peptide (ISQAVHAAHAEINEAGR, SEQ ID NO:8). “HTRF ratio” is the emission at 665 nm (acceptor)/emission at 620 nm (donor) multiplied by a factor or 10^4.
A homogeneous time-resolved fluorescence (HTRF) LAG3/MHC-II binding assay (Cisbio US Inc.) was used to measure the interaction between MHC-II and LAG3 in the presence of peptides. In this assay, the interaction between Tag1-LAG3 and Tag2-MHC-II is detected by using anti-Tag1-Terbium (HTRF donor) and anti-Tag2-XL665 (HTRF acceptor). When the donor and acceptor antibodies are brought into close proximity due to LAG3 and MHC-II binding, excitation of the donor antibody triggers fluorescent resonance energy transfer (FRET) towards the acceptor antibody, which in turn emits specifically at 665 nm. This specific signal is directly proportional to the extent of LAG3/MHC-II interaction. Thus, an agent that blocks the interaction between LAG3 and MHC-II will cause a reduction in HTRF ratio.
An anti-human LAG3 antibody (Novoprotein #GMP-A092, Lot 0331158, 500 nM) was tested in the assay at an eleven-point, serially diluted semi-log dose response curve starting at 100 nM and served as a positive control. The ovalbumin peptide was used as a negative control. Peptides were reconstituted at a concentration of 20 mM in […] and tested at an eleven-point dose response curve starting at 100 µM followed by 4-fold dilutions. […]

Assay [3] concerns the target T2, soluble recombinant human LAG3 (Homo sapiens, UniProt P18627).
T2 construct: soluble recombinant human LAG3
T2 sequence (P18627 23-450 limits assumed): T1 sequence (P18627 23-450 limits assumed)
Nature of the assay: Clonal phage ELISA after phage display bio-panning. It counts as binding. The source says: The TriCo-20™, TriCo-16™, Ph.D.-12™, and Ph.D. C7™ Phage Display Peptide Libraries (Creative Biolabs, 45-1 Ramsey Road, Shirley, NY 11967) were screened by performing several rounds of bio-panning to identify binders of soluble recombinant human LAG3.

For assay [4], the target named is T3, human LAG3/FGL1 (Homo sapiens, UniProt P18627).
T3 construct: purchased BPS Bioscience
T3 sequence (P18627 23-450 limits assumed): T1 sequence (P18627 23-450 limits assumed)
The assay can be described thus: Human LAG3/FGL1 TR-FRET binding assay (BPS Bioscience). As for the experimental part: The peptides were tested using a human LAG3/FGL1 TR-FRET binding assay (BPS Bioscience) carried out according to the manufacturer's instructions.
Peptide stocks of LAG3-11, LAG3-42, LAG3-48, LAG3-51, LAG3-54, LAG3-56, LAG3-60 and OVA were prepared at 1 mM followed by a 1:5 dilution in plate reactions. LAG3-11 and OVA were tested at 200, 50, 13, 3, 0.8, 0.2, 0.05, and 0.01 μM. The other peptides were tested at 200, 50, 13, and 3 μM. A neutralizing anti-human LAG3 antibody (BPS Bioscience Cat. #71219) was used as a positive control.
Reaction mixes were incubated 1 hr at RT before development. After development, plate was read in a Tecan M1000 TR-FRET instrument. Percent activity was calculated as follows: % Activity=100×[(sample−minimum)/(maximum−minimum)]

In assay [5] the test system is human peripheral blood mononuclear cell (PBMC). Nature of the assay: Human PBMC-based recall assay (EBV and CMV viral-specific peptides). Type of assay: cell-based. The note with it: seven days post-stimulation. As for the experimental part: PBMCs were obtained from a human donor who had previously been identified as a positive responder to Epstein-Barr virus (EBV) and Cytomegalovirus (CMV) viral-specific peptides. 5×10^5 PBMCs in 200 μL of media were stimulated with EBV and CMV viral-specific peptides in the presence or absence of LAG3-11. Seven days post-stimulation, the percentage of virus-specific CD8+ T cells were identified via flow cytometry using MHC-I tetramers. Supernatants were also collected and the amount of […] determined via ELISA.

For SAPWEPLHWPEDWWQGTGEW (LAG3-11 peptide), the “fold inhibition (fold increase in luciferase activity)” value in assay [1] was “approximately 2.8 fold”. Besides, the HTRF ratio in assay [2] (LOG [Compound] M tested for peptide −4, single replicates) was 3213 and 3460 and 3458; in assay [2] (LOG [Compound] M tested for peptide −4.60206, single replicates), 4749 and 5287 and 5014; in assay [2] (LOG [Compound] M tested for peptide −5.20412, single replicates) it was 6812 and 6892 and 6696; in assay [2] (LOG [Compound] M tested for peptide −5.80618, single replicates), 7774 and 8164 and 7993; in assay [2] (LOG [Compound] M tested for peptide −6.40824), 8538 and 8718 and 8858; in assay [2] (LOG [Compound] M tested for peptide −7.0103, single replicates) it was 8794 and 8729 and 8889. Besides, the HTRF ratio in assay [2] (LOG [Compound] M tested for peptide −7.61236, single replicates) is 9090 and 9036 and 9329; in assay [2] (LOG [Compound] M tested for peptide −8.21442, single replicates), 9012 and 9293 and 9067; in assay [2] (LOG [Compound] M tested for peptide −8.81648, single replicates) it was 8877 and 8955 and 8992; in assay [2] (LOG [Compound] M tested for peptide −9.41854, single replicates), 8591 and 6950 and 8287; in assay [2] (LOG [Compound] M tested for peptide −10.0206), 8212 and 8748 and 8700; in assay [2] (LOG [Compound] M tested for peptide −10.6227), 8886 and 8842 and 9097. Also, in assay [2] (four independent experiments), the “disruption of LAG3 and MHC-II interaction” value was “disrupts the interaction of LAG3 and MHC-II”. Also, the “Clonal Phase ELISA coated signal” value in assay [3] (coated) is 0.271. Also, the “Clonal Phase ELISA uncoated signal” value in assay [3] (uncoated (background)) was determined as 0.093. In addition, the “inhibition of the interaction between human LAG3 and FGL1” value in assay [4] is “inhibit the interaction between human LAG3 and FGL1”. In assay [5] (relative to the viral-specific peptides alone, ELISA), the “increase of IFN-7 secretion by human PBMCs” value worked out at 3 fold. The “increase in percentage of tetramer+ CD8 T cells” value in assay [5] (flow cytometry, MHC-I tetramers) is reported as ~2 fold.
